{"source": "patent US20210155689A1", "about": "(SHANGHAI PHARMAEXPLORER, published 2021)", "binders": {"B1": {"name": "405B8H3 (mouse antibody purified from hybridoma) (antibody, V domains shown)", "VH": "QVQLQQSGAELVRPGASVTLSCKASGYTFTDYEMHWVKQTPVHGLEWIGATDPETGNSAYNQKFKGKAIMTADKSSSTAYMELRSLTSEDSAVYYCISTGWNDWGQGTSLTVSS", "VL": "DIKMTQSPSSMYASLGERVTITCKASQDINSYLSWFQQKPGKSPKTLIYRADRLLDGVPSRFSGSGSGQDYSLTISSLEYGDMGIYYCLQYDEFPYTFGGGTKLEIK", "notes": "also called mAb103-405B8H3; 405B81-13"}, "B2": {"name": "409B11E12 (mouse antibody purified from hybridoma) (antibody, V domains shown)", "VH": "B1 VH with P41T, G56S, N57Y, M70L, S98A", "VL": "B1 VL with I2L, D52N, G81E", "notes": "also called mAb104-409B11E12"}, "B3": {"name": "409D4E10 (mouse antibody purified from hybridoma) (antibody, V domains shown)", "VH": "B1 VH with Y27N, G56D, S58T, M70L, A72T, S98T, T99S", "VL": "B1 VL with D52N, G81E, D92N", "notes": "also called mAb112-409D4E10"}, "B4": {"name": "556F6B8 (mouse antibody purified from hybridoma) (antibody, V domains shown)", "VH": "RVQLKQSGPGLVQPSQSLSITCTVSGFSLIKYGVHWVRQSPGEGLEWLGVIWRGGITDYNAAFMSRLSITKDNSKSQVFFKMNSLQADDTAIYYCAKWDGPLAMDYWGQGTSVTVSS", "VL": "DIVMTQSHKFLSTSVGDRVSITCKASQDVGTTVAWYQQKPGQSPKLLIYWASTRHTGVPDRFTGSGSGTDFTLTISNVQSEDLADYFCQQYSSYPYTFGGGTKLEIK", "notes": "also called mAb123-556F6B8"}, "B5": {"name": "105F1E10 (mouse antibody purified from hybridoma) (antibody, V domains shown)", "VH": "EVQLQQSGPELVKPGASVKMSCRASGYTFTDFKMHWMKQSHGKSLEWIGYIAPNNGGTAYNQKFRGKATLTVNESSNTAYMELRSLTSEDSAVYYCVDWDDVDYWGQGTTLTVSS", "VL": "B1 VL with P40S, D52N, L55V, G81E, D92V, Y96L, G100A, I106L", "notes": "also called mAb009-105F1E10"}, "B6": {"name": "105F1E10 (LAG-3 mouse-human chimeric antibody) (antibody, V domains shown)", "VH": "B5 VH", "VL": "B1 VL with P40S, D52N, L55V, G81E, D92V, Y96L, G100A, I106L"}, "B7": {"name": "405B8H3 (LAG-3 mouse-human chimeric antibody) (antibody, V domains shown)", "VH": "B1 VH", "VL": "B1 VL", "notes": "also called mouse-human chimeric antibody 405B8H3"}, "B8": {"name": "409B11E12 (LAG-3 mouse-human chimeric antibody) (antibody, V domains shown)", "VH": "B1 VH with P41T, G56S, N57Y, M70L, S98A", "VL": "B1 VL with I2L, D52N, G81E"}, "B9": {"name": "409D4E10 (LAG-3 mouse-human chimeric antibody) (antibody, V domains shown)", "VH": "B1 VH with Y27N, G56D, S58T, M70L, A72T, S98T, T99S", "VL": "B1 VL with D52N, G81E, D92N"}, "B10": {"name": "556F6B8 (LAG-3 mouse-human chimeric antibody) (antibody, V domains shown)", "VH": "B4 VH", "VL": "B4 VL", "notes": "also called 556F8B8"}}, "note": "Where a chain is given by its changes, count along the chain named.", "data": [{"molecular_target": "T1, human LAG-3 (full length, on the cell surface) (human, UniProt P18627 23-525)", "T1 construct": "Full-length human LAG-3 expressed on cells; also called HEK293-hLAG-3; HEK293 cells transfected with LAG-3 gene", "T1 sequence": "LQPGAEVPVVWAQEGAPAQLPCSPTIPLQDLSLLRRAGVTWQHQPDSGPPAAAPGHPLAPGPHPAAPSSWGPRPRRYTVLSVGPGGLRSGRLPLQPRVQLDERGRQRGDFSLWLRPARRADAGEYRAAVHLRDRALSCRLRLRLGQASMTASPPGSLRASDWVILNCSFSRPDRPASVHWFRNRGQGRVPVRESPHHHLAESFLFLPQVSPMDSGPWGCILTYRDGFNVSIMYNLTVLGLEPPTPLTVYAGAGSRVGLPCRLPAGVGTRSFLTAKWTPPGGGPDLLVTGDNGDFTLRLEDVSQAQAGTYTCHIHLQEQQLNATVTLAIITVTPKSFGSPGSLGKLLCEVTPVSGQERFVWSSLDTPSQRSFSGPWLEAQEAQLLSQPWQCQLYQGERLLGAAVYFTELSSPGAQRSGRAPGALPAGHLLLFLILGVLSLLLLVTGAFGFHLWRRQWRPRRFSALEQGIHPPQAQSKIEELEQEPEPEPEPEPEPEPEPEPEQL", "assay": "FACS, HEK293-hLAG-3; 0.000 nM", "description": "(§1) The pIRES plasmid with the monkey-derived full-length gene was transfected into the HEK293 cell line to construct a HEK293 stable cell line containing monkey LAG-3 (herein referred to as HEK293-cLAG-3 stable cell line). The HEK293-hLAG-3 stable cell line and HEK293-cLAG-3 stable cell line were expanded in a T-75 cell culture flask to a 90% confluence. The medium was aspirated, and the cells were washed with HBSS (Hanks' Balanced Salt Solution) 1-2 times, then treated with a enzyme-free cell dissociation fluid (Versene solution: Life technology) and the cells were collected. The cells were washed with HBSS buffer for 1-2 times. After counted, the cells were diluted with HBSS to 1-2×10⁶ cells per ml, added with 1% goat serum blocking solution, incubated on ice for 20-30 minutes, and then washed with HBSS for 2 times by centrifugation. The collected cells were suspended in the FACS buffer (HBSS+1% BSA) to 2×10⁶ cells/ml, added as 100 microliters per well to a 96-well FACS reaction plate, added with 100 microliters per well of the antibody sample to be tested, incubated on ice for 1-2 hours. The plate was washed twice with the FACS buffer by centrifugation, added with 100 microliters of fluorescent (Alexa 488)-labeled secondary antibodies per well, and incubated on ice for 0.5-1.0 hours. The plate was washed 2-3 times with FACS buffer by centrifugation, added with 100 μl fixative solution (4% Paraformaldehyde) per well to suspend the cells. 5-10 minutes later, it was washed 1-2 times with FACS buffer by centrifugation. The cells were suspended with 100 microliters of FACS buffer, FACS (FACSCalibur, BD) was used for detection and the results were analyzed.", "units": {"Mean fluorescence intensity": "MFI"}, "values": [{"binder": "B1", "Mean fluorescence intensity": 3.7}, {"binder": "B2", "Mean fluorescence intensity": 2.5}, {"binder": "B3", "Mean fluorescence intensity": 2.8}, {"binder": "B4", "Mean fluorescence intensity": 2.8}, {"binder": "B5", "Mean fluorescence intensity": 3.7}]}, {"molecular_target": "T2, mouse LAG-3 protein with hFc tag (mLAG-3-hFc protein) (mouse; human, UniProt Q61790 24-442)", "T2 construct": "Made in HEK293 cells; also called mouse LAG-3 extracellular domain protein; not shown: human IgG Fc fragment (hFc) of the pCpC vector", "T2 sequence": "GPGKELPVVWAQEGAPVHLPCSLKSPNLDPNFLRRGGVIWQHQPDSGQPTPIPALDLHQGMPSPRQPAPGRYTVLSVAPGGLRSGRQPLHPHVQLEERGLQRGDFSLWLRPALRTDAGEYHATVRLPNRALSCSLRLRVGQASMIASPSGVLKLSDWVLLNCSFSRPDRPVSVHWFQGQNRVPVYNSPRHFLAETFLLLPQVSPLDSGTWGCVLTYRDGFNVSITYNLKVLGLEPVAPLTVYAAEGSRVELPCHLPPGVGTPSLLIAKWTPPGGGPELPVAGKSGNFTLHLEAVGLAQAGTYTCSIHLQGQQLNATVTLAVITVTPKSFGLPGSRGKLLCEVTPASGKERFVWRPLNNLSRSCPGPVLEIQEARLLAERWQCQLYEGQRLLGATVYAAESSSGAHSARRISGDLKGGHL", "assay": "ELISA, mLAG-3-hFc coated; 0.0067 nM", "protocol": "The plate was sealed with plastic film and incubated overnight at 4° C. The plate was washed 2 times with the plate washing solution (PBS+0.01% Tween20) on the next day, and added with the blocking solution (PBS+0.01% Tween20+1% BSA) and blocked at room temperature for 1-2 hours. The blocking solution was poured out, and the plate was added with 50-100 μl of the antibody sample to be tested to each well, incubated at 37° C. for 1-2 hours, and washed 2-3 times with a plate washing solution (PBS+0.01% Tween20). HRP (horseradish peroxidase) labeled secondary antibody was added, and the plate was incubated at 37° C. for 1-2 hours, and washed 2-3 times with a plate washing solution (PBS+0.01% Tween20). 100 μl of TMB substrate was added to each well. After incubated at room temperature for 15-30 minutes, the plate was added with 100 μl of stop solution (1.0N HCl) to each well.", "units": {"OD450": "OD450"}, "values": [{"binder": "B6", "OD450": 0.09}, {"binder": "B7", "OD450": 0.08}, {"binder": "B8", "OD450": 0.07}, {"binder": "B9", "OD450": 0.09}, {"binder": "B10", "OD450": 0.14}]}, {"molecular_target": "T3, monkey LAG-3 (full length, on the cell surface) (monkey, UniProt P18627 24-525 (human entry))", "T3 construct": "also called HEK293-cLAG-3; monkey LAG-3 protein on the cell surface", "T3 chain": "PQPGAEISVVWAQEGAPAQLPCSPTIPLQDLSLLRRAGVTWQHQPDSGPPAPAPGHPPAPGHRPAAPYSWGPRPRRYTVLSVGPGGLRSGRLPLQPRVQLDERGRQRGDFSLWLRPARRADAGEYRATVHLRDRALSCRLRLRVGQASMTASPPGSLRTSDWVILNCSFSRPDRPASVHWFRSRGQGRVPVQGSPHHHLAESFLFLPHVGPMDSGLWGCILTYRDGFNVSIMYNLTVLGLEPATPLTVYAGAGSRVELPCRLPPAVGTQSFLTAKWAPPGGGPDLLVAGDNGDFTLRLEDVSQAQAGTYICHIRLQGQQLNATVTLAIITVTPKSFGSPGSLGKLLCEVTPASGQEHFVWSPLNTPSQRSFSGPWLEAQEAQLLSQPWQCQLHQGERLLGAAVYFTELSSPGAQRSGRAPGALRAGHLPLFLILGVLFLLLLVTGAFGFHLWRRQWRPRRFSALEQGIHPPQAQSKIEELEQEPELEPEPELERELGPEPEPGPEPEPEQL", "assay": "FACS, HEK293-cLAG-3; 0.320 nM", "description": "as §1", "units": {"Mean fluorescence intensity": "MFI"}, "values": [{"binder": "B1", "Mean fluorescence intensity": 8}, {"binder": "B2", "Mean fluorescence intensity": 8}, {"binder": "B3", "Mean fluorescence intensity": 11.5}, {"binder": "B4", "Mean fluorescence intensity": 9.8}, {"binder": "B5", "Mean fluorescence intensity": 6.6}]}]}
